# Measured values as given in US20200262898A1 (INTEGRAL MOLECULAR, published 2020).
# T1: CD59 (UniProt P13987 26-102, limits assumed)
# T1 construct: whole, on cells
# T1 sequence (looked up): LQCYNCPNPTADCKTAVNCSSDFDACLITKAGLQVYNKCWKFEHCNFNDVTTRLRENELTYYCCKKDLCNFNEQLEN
# T2: CD81 (UniProt P60033 1-236, limits assumed)
# T2 construct: whole, on cells
# T2 sequence (looked up): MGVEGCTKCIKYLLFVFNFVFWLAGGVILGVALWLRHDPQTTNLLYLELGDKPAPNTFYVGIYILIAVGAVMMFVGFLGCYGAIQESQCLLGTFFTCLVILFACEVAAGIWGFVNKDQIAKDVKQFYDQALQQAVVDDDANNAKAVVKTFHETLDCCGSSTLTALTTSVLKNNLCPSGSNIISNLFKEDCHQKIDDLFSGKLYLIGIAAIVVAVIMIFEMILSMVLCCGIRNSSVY
# Legend:
# [1] = biological target: T3, Fc-binding protein (the ZZ domain of ProA); test: flow cytometry on cells expressing the Fc-binding ZZ domain on their surface; given as a measure of expression
# T3 construct: domain: ZZ domain of ProA; the construct is not described
# Description: (§1) Antibodies were generated using the common light chains B9, F10, C11, and H11 paired with 8 different heavy chains. […] Binding is expressed as Signal:Background for binding to the molecular target of the heavy chain antibody (listed at top of Table 4). Expression is based on binding to cells expressing an Fc-binding protein (the ZZ domain of ProA) (ZZ) on their surface, enabling total antibody to bind and be measured. Detection was using flow cytometry with cells transfected to express the target protein. Background binding S:B is normalized to 1.0, using mock-transfected cells as background. The data in the table below illustrate that the light chains can be used with a variety of heavy chains and the antibody generated from a VH that can bind to the light chains B9 and F10 will function and bind to the target of interest.
# CD59 = biological target: T1, CD59; test: flow cytometry on cells transfected with the target; signal over mock-transfected cells (background = 1.0)
# Description: as §1
# CD81 = biological target: T2, CD81; test: as above
# Description: as §1
Binder,S:B Expression [1],S:B Binding (CD59),S:B Binding (CD81)
"Antibody of common light chain B9 (B9chicken) paired with the heavy chain against CD59 (antibody, V domains shown, also called HC-CD59) VH: AVTLDESGGGLQTPGGGLSLVCKASGFDFSSFDMVWVRQAPGKGLEWVAGISYSNTDTSYAPAVDGRATISRDNGQSTVRLQLNNLRAEDSATYYCAKSAGGCCYRADNIDAWGHGTEVIVSS VL: ALTQPSSVSANPGETVKITCSGGGSSNYYGWYQQKSPGSAPVTLIYGTNKRPSDIPSRFSGSKSGSTGTLTITGVQADDEAVYFCGSADSSTNAGIFGAGTTLTVL",11.8 S:B,0.7 S:B,
"Antibody of common light chain C11 (C11chicken) paired with the heavy chain against CD59 (antibody, V domains shown, also called HC-CD59) VH: AVTLDESGGGLQTPGGGLSLVCKASGFDFSSFDMVWVRQAPGKGLEWVAGISYSNTDTSYAPAVDGRATISRDNGQSTVRLQLNNLRAEDSATYYCAKSAGGCCYRADNIDAWGHGTEVIVSS VL: ALTQPSSVSANPGETVKITCSGGGSWYGSYYYGWYQQKSPGSAPVTLIYNNDKRPSDIPSRFSGSESGSTATLTITGVQAEDEAVYFCGGYDSTTTDMFGAGTTLTVL",12.2 S:B,1.4 S:B,
"Antibody of common light chain C11 (C11chicken) paired with the heavy chain against CD81 (antibody, V domains shown, also called HC-CD81) VH: AVTLDESGGGLQTPGGALSLVCKASGFSIGDYNMGWVRQAPGKGLEWVAGIDAGGGTWRATAVKGRATISRDNGQSTVRLQLNNLRAEDTATYFCAKSTDSSANCCANSIDAWGHGTEVIVSS VL: ALTQPSSVSANPGETVKITCSGGGSWYGSYYYGWYQQKSPGSAPVTLIYNNDKRPSDIPSRFSGSESGSTATLTITGVQAEDEAVYFCGGYDSTTTDMFGAGTTLTVL",9.8 S:B,,30.9 S:B
"Antibody of light chain E1 (E1chicken) paired with the heavy chain against CD81 (antibody, V domains shown, also called HC-CD81) VH: AVTLDESGGGLQTPGGALSLVCKASGFSIGDYNMGWVRQAPGKGLEWVAGIDAGGGTWRATAVKGRATISRDNGQSTVRLQLNNLRAEDTATYFCAKSTDSSANCCANSIDAWGHGTEVIVSS VL: ALTQPSSVSANPGETVKITCSGSSGSGYYGWYQQKSPGSAPVTLIYDNDKRPSDIPSRFSGSKSGSTGTLTITGVQADDEAVYFCGSADNNYTGIFGAGTTLTVL",1.7 S:B,,1.5 S:B
"Antibody of light chain D3 (D3chicken) paired with the heavy chain against CD81 (antibody, V domains shown, also called HC-CD81) VH: AVTLDESGGGLQTPGGALSLVCKASGFSIGDYNMGWVRQAPGKGLEWVAGIDAGGGTWRATAVKGRATISRDNGQSTVRLQLNNLRAEDTATYFCAKSTDSSANCCANSIDAWGHGTEVIVSS VL: ALTQPSSVSANPGETVKITCSGDDRWYGWYQQKSPGSAPVTLIYSNDKRPSDIPSRFSGSKSGSTGTLTITGVQADDEAVYFCGSRDSSYAGIFGAGTTLTVL",1.8 S:B,,1.2 S:B
